{"source": "paper PMC3135403", "about": "(The Journal of Cell Biology, 2011)", "binders": {"B1": {"name": "His6-Bak R36A (domain or fragment, human, UniProt Q16611 1-186, looked up)", "chain": "MASGQGPGPPRQECGEPALPSASEEQVAQDTEEVFASYVFYRHQQEQEAEGVAAPADPEMVTLPLQPSSTMGQVGRQLAIIGDDINRRYDSEFQTMLQHLQPTAENAYEYFTKIATSLFESGINWGRVVALLGFGYRLALHVYQHGLTGFLGQVTRFVVDFMLHHCIARWIAQRGGWVAALNLGNG"}, "B2": {"name": "NoxaΔCT (domain or fragment, human, UniProt Q13794-1 1-40, looked up)", "chain": "MPGKKARKNAQPSPARAPAELEVECATQLRRFGDKLNFRQ"}, "B3": {"name": "Noxa (full-length, S peptide and His6 tagged) (natural protein, human, UniProt Q13794-1 1-54, looked up)", "chain": "MPGKKARKNAQPSPARAPAELEVECATQLRRFGDKLNFRQKLLNLISKLFCSGT"}, "B4": {"name": "tBid (domain or fragment, human, UniProt P55957 61-195, looked up)", "chain": "GNRSSHSRLGRIEADSESQEDIIRNIARHLAQVGDSMDRSIPPGLVNGLALQLRNTSRSEEDRNRDLATALEQLLQAYPRDMEKEKTMLVLALLLAKKVASHTPSLLRDVFHTTVNFINQNLRTYVRSLARNGMD"}}, "key": {"SEC": {"target": "the molecule itself", "test": "SEC"}, "GST-BakΔTM [1]": {"target": "T1, GST-BakΔTM (human, UniProt Q16611 1-186)", "T1 sequence (looked up)": "B1 chain with A36R", "test": "SPR"}, "GST-BakΔTM [2]": {"target": "T1, GST-BakΔTM", "test": "SPR", "remark": "listed apart in the source"}, "GST-BakΔTM R36A": {"target": "T2, GST-BakΔTM R36A (human, UniProt Q16611 1-186, R36A)", "T2 sequence (looked up)": "B1 chain", "test": "SPR"}, "GST-Bak 93E": {"target": "T3, GST-Bak 93E (human, UniProt Q16611 1-186, Bak 93E)", "T3 sequence (looked up)": "B1 chain with A36R, F93E", "test": "SPR"}, "GST-Bak 114E": {"target": "T4, GST-Bak 114E (human, UniProt Q16611 1-186, Bak 114E)", "T4 sequence (looked up)": "B1 chain with A36R, I114E", "test": "SPR"}, "GST-Bak 93E/114E": {"target": "T5, GST-Bak 93E/114E (human, UniProt Q16611 1-186, Bak 93E/114E (93E) | Bak 93E/114E (114E))", "T5 sequence (looked up)": "B1 chain with A36R, F93E, I114E", "test": "SPR"}}, "note": "Where a chain is given by its changes, count along the chain named. In names and notes the source's numbering stands.", "data": [{"binder": "B1", "values": [{"measurement": "binding result", "setting": "SEC", "result": "binds"}]}, {"binder": "B2", "values": [{"measurement": "binding result", "setting": "GST-BakΔTM [1]", "result": "binds"}]}, {"binder": "B3", "values": [{"measurement": "Kd", "setting": "GST-BakΔTM [2]", "result": 24, "unit": "nM"}, {"measurement": "binding result", "setting": "GST-BakΔTM R36A", "result": "binds"}, {"measurement": "binding result", "setting": "GST-Bak 93E", "result": "binds"}, {"measurement": "binding result", "setting": "GST-Bak 114E", "result": "binds"}, {"measurement": "binding result", "setting": "GST-Bak 93E/114E", "result": "binds"}]}, {"binder": "B4", "values": [{"measurement": "binding result", "setting": "GST-BakΔTM [1]", "result": "binds"}]}]}
